Results: patent publication US20170176432A1 (OSAKA UNIVERSITY, published 2017)
Values belong to the binder of their own block, whether it stands above or below them.

Assays:
[1] = target: T1, human β2-glycoprotein I (β2-GPI) (human, UniProt P02749 20-345); experiment: flow cytometry of surface β2-GPI on 293T; HLA-DRB1*01:03
T1 construct: whole, on cells
T1 sequence (looked up): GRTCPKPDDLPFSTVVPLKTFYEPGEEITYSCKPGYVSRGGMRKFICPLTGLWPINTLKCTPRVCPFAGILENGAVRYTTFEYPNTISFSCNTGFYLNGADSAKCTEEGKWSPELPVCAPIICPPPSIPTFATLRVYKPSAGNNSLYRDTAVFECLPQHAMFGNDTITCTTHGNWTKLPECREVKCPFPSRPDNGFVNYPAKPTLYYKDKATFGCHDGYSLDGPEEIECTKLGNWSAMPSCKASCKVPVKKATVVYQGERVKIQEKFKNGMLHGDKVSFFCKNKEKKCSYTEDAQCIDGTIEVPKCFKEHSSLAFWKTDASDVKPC

human thyroglobulin (TG) [2] = target: T2, human thyroglobulin (TG) (human, UniProt P01266 20-2768); experiment: flow cytometry of surface TG (anti-histidine antibody) on 293T; HLA-DRB1*01:03
T2 construct: whole, on cells; the tag is not described
T2 sequence (P01266 20-2768): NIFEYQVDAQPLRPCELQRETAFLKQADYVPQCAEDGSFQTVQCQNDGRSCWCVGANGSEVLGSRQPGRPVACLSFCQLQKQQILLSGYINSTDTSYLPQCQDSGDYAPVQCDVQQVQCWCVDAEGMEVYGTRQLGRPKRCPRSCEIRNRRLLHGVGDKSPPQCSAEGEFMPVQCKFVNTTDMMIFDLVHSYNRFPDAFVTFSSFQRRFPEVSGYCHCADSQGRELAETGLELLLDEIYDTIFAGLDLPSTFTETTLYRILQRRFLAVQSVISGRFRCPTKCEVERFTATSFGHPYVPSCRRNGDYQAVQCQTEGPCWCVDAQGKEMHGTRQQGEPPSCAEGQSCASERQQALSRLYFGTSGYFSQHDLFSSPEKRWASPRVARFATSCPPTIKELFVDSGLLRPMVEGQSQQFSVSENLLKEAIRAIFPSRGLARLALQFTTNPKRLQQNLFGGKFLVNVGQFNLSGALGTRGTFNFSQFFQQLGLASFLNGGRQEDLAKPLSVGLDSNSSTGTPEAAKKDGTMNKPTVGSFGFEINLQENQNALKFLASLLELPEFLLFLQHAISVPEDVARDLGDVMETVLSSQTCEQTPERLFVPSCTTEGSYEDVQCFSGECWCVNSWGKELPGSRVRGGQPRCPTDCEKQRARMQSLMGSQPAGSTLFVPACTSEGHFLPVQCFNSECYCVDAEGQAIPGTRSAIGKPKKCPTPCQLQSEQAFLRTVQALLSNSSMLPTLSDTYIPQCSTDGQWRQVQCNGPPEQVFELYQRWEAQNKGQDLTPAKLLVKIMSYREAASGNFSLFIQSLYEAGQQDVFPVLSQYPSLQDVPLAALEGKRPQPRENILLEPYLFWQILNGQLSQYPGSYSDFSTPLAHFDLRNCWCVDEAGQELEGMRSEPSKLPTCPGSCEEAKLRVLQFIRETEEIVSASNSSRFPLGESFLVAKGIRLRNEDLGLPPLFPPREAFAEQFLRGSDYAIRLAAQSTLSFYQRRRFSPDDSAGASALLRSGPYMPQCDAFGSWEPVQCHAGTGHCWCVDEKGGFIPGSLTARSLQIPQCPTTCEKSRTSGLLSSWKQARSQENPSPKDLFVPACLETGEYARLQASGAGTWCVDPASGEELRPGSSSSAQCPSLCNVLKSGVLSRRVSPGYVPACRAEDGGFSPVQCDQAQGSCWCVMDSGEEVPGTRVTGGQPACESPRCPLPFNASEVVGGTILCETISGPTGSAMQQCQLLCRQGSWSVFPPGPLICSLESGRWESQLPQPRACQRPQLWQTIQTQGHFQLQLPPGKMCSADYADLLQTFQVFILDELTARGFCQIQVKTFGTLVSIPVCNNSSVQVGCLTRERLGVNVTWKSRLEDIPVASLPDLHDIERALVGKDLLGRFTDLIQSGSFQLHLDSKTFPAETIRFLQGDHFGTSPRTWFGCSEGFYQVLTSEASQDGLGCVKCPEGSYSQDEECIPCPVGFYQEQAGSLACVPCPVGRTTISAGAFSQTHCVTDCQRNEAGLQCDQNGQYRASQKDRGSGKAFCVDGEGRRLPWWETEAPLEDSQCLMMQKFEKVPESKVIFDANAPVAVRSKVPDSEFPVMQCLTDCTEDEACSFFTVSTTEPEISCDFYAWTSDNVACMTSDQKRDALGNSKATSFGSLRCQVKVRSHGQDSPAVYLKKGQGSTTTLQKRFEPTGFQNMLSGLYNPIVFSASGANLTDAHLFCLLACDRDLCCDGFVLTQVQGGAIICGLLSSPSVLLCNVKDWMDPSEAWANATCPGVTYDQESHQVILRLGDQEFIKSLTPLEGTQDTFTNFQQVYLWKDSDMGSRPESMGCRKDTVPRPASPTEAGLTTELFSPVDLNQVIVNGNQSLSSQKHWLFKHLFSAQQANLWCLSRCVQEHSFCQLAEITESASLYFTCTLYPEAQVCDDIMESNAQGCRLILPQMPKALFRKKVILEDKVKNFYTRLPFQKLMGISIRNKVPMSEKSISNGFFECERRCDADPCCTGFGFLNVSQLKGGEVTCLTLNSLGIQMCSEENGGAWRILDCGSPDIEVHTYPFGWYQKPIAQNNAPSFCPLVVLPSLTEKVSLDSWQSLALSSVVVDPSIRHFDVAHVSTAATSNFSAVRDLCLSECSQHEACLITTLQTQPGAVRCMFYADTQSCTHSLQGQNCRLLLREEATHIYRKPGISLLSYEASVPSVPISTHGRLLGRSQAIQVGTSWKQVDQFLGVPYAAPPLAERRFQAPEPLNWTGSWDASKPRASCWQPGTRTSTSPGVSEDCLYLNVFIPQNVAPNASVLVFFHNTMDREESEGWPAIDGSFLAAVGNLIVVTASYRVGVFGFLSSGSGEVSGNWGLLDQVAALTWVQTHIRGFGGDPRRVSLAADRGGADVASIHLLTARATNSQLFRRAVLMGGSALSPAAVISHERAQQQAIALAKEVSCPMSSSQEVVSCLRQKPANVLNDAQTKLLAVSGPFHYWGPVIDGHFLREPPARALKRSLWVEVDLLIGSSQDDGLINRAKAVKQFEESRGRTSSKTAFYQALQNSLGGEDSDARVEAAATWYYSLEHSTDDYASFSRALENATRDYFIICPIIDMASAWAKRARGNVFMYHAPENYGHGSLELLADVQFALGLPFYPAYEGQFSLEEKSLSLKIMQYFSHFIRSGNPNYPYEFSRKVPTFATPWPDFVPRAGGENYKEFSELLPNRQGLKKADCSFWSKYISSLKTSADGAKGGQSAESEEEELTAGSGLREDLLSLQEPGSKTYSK

[3] = target: T1, human β2-glycoprotein I (β2-GPI); experiment: flow cytometry of surface β2-GPI on 293T; HLA-DRB1*07:01
[4] = target: T1, human β2-glycoprotein I (β2-GPI); experiment: flow cytometry of surface β2-GPI on 293T; HLA-DRB1*01:01
[5] = target: T1, human β2-glycoprotein I (β2-GPI); experiment: flow cytometry of surface β2-GPI on 293T; HLA-DRB1*04:06
[6] = target: T1, human β2-glycoprotein I (β2-GPI); experiment: flow cytometry of surface β2-GPI on 293T; HLA-DRB1*10:01
[7] = target: T1, human β2-glycoprotein I (β2-GPI); experiment: flow cytometry of surface β2-GPI on 293T; HLA-DRB1*04:03
[8] = target: T1, human β2-glycoprotein I (β2-GPI); experiment: flow cytometry of surface β2-GPI on 293T; HLA-DRB1*14:02
[9] = target: T1, human β2-glycoprotein I (β2-GPI); experiment: flow cytometry of surface β2-GPI on 293T; HLA-DRB1*13:02
[10] = target: T1, human β2-glycoprotein I (β2-GPI); experiment: flow cytometry of surface β2-GPI on 293T; HLA-DRB1*03:01
[11] = target: T1, human β2-glycoprotein I (β2-GPI); experiment: flow cytometry of surface β2-GPI on 293T; HLA-DRB1*11:01
[12] = target: T1, human β2-glycoprotein I (β2-GPI); experiment: flow cytometry of surface β2-GPI on 293T; HLA-DRB1*14:03
human thyroglobulin (TG) [13] = target: T2, human thyroglobulin (TG); experiment: flow cytometry of surface TG (anti-histidine antibody) on 293T; HLA-DRB1*14:03
[14] = target: T1, human β2-glycoprotein I (β2-GPI); experiment: flow cytometry of surface β2-GPI on 293T cells (β2-GPI+HLA-DR4)
Procedure: The HLA-DRA*01:01 vector as an α-chain expression vector, the HLA-DRB1*04:04 vector as a β-chain expression vector, the β2-GPI vector, and the GFP vector were introduced to 293T cells, and the 293T cells were cultured. The cultured cells were reacted with an anti-β2-GPI antibody or an anti-cardiolipin antibody (aCL), and further reacted with the APC-labeled anti-human IgG antibody. Then, GFP-positive cells were subjected to flow cytometry analysis in the same manner as in Example 1A. As Control 1, the analysis was performed in the same manner, except that only the β2-GPI expression vector was introduced. As Control 2, the analysis was performed in the same manner, except that only the GFP vector was introduced. [0219] anti-β2-GPI antibody: polyclonal antibody, available from Atlas antibodies [0220] human anti-cardiolipin antibody: Clone EY2C9, supplied by Professor Atsumi, School of Medicine in Hokkaido University. Reference was made to the following paper: Ichikawa, K., M. A. Khamashta, T. Koike, E. Matsuura, and G. R. V. Hughes. 1994. P2-Glycoprotein I reactivity of monoclonal anticardiolipin antibodies from patients with the antiphospholipid syndrome. Arthritis Rheum. 37: 1453.

[15] = target: T1, human β2-glycoprotein I (β2-GPI); experiment: flow cytometry of surface β2-GPI on 293T; HLA-DRB1*04:05
[16] = target: T1, human β2-glycoprotein I (β2-GPI); experiment: flow cytometry of surface β2-GPI on 293T; HLA-DRB1*14:01
[17] = target: T1, human β2-glycoprotein I (β2-GPI); experiment: flow cytometry of surface β2-GPI on 293T; HLA-DRB1*12:01
[18] = target: T1, human β2-glycoprotein I (β2-GPI); experiment: flow cytometry of surface β2-GPI on 293T; HLA-DRB1*14:06
[19] = target: T1, human β2-glycoprotein I (β2-GPI); experiment: flow cytometry of surface β2-GPI on 293T; HLA-DRB1*08:01
[20] = target: T1, human β2-glycoprotein I (β2-GPI); experiment: flow cytometry of surface β2-GPI on 293T; HLA-DRB1*13:01
[21] = target: T1, human β2-glycoprotein I (β2-GPI); experiment: flow cytometry of surface β2-GPI on 293T; HLA-DRB1*13:03
[22] = target: T1, human β2-glycoprotein I (β2-GPI); experiment: flow cytometry of surface β2-GPI on 293T; HLA-DRB1*08:03
[23] = target: T1, human β2-glycoprotein I (β2-GPI); experiment: flow cytometry of surface β2-GPI on 293T; HLA-DRB1*09:01
[24] = target: T1, human β2-glycoprotein I (β2-GPI); experiment: flow cytometry of surface β2-GPI on 293T; HLA-DRB1*04:02
[25] = target: T1, human β2-glycoprotein I (β2-GPI); experiment: flow cytometry of surface β2-GPI on 293T; HLA-DRB1*04:01

B1: HLA-DR (HLA-DRA*01:01/HLA-DRB1*01:03) (other, human)
MHC II alpha: not shown
MHC II beta: not shown
notes: whole, on cells
binding result [1]: binds
binding result (human thyroglobulin (TG) [2]): binds

B2: HLA-DR (HLA-DRA*01:01/HLA-DRB1*07:01) (other, human)
MHC II alpha: not shown
MHC II beta: not shown
notes: whole, on cells; also called HLA-DR7; APS susceptible HLA-DR7
binding result [3]: binds

B3: HLA-DR (HLA-DRA*01:01/HLA-DRB1*01:01) (other, human)
MHC II alpha: not shown
MHC II beta: not shown
notes: whole, on cells; also called HLA-DR1; HLA-DR0101
binding result [4]: binds

B4: HLA-DR (HLA-DRA*01:01/HLA-DRB1*04:06) (other, human)
MHC II alpha: not shown
MHC II beta: not shown
notes: whole, on cells
binding result [5]: binds

B5: HLA-DR (HLA-DRA*01:01/HLA-DRB1*10:01) (other, human)
MHC II alpha: not shown
MHC II beta: not shown
notes: whole, on cells
binding result [6]: binds

B6: HLA-DR (HLA-DRA*01:01/HLA-DRB1*04:03) (other, human)
MHC II alpha: not shown
MHC II beta: not shown
notes: whole, on cells
binding result [7]: binds

B7: HLA-DR (HLA-DRA*01:01/HLA-DRB1*14:02) (other, human)
MHC II alpha: not shown
MHC II beta: not shown
notes: whole, on cells
binding result [8]: binds

B8: HLA-DR (HLA-DRA*01:01/HLA-DRB1*13:02) (other, human)
MHC II alpha: not shown
MHC II beta: not shown
notes: whole, on cells
binding result [9]: binds

B9: HLA-DR (HLA-DRA*01:01/HLA-DRB1*03:01) (other, human)
MHC II alpha: not shown
MHC II beta: not shown
notes: whole, on cells; also called HLA-DR3
binding result [10]: binds

B10: HLA-DR (HLA-DRA*01:01/HLA-DRB1*11:01) (other, human)
MHC II alpha: not shown
MHC II beta: not shown
notes: whole, on cells
binding result [11]: binds

B11: HLA-DR (HLA-DRA*01:01/HLA-DRB1*14:03) (other, human)
MHC II alpha: not shown
MHC II beta: not shown
notes: whole, on cells
binding result [12]: binds
binding result (human thyroglobulin (TG) [13]): binds

Further lines, results first:

binding result [14]: binds
B12: HLA-DR (HLA-DRA*01:01/HLA-DRB1*04:04) (other, human)
MHC II alpha: not shown
MHC II beta: not shown
notes: whole, on cells; also called HLA-DR4; HLA-DR0404

binding result [15]: binds
B13: HLA-DR (HLA-DRA*01:01/HLA-DRB1*04:05) (other, human)
MHC II alpha: not shown
MHC II beta: not shown
notes: whole, on cells

binding result [16]: binds
B14: HLA-DR (HLA-DRA*01:01/HLA-DRB1*14:01) (other, human)
MHC II alpha: not shown
MHC II beta: not shown
notes: whole, on cells

binding result [17]: binds
B15: HLA-DR (HLA-DRA*01:01/HLA-DRB1*12:01) (other, human)
MHC II alpha: not shown
MHC II beta: not shown
notes: whole, on cells

binding result [18]: binds
B16: HLA-DR (HLA-DRA*01:01/HLA-DRB1*14:06) (other, human)
MHC II alpha: not shown
MHC II beta: not shown
notes: whole, on cells

binding result [19]: binds
B17: HLA-DR (HLA-DRA*01:01/HLA-DRB1*08:01) (other, human)
MHC II alpha: not shown
MHC II beta: not shown
notes: whole, on cells

binding result [20]: binds
B18: HLA-DR (HLA-DRA*01:01/HLA-DRB1*13:01) (other, human)
MHC II alpha: not shown
MHC II beta: not shown
notes: whole, on cells

binding result [21]: binds
B19: HLA-DR (HLA-DRA*01:01/HLA-DRB1*13:03) (other, human)
MHC II alpha: not shown
MHC II beta: not shown
notes: whole, on cells

binding result [22]: binds
B20: HLA-DR (HLA-DRA*01:01/HLA-DRB1*08:03) (other, human)
MHC II alpha: not shown
MHC II beta: not shown
notes: whole, on cells

binding result [23]: binds
B21: HLA-DR (HLA-DRA*01:01/HLA-DRB1*09:01) (other, human)
MHC II alpha: not shown
MHC II beta: not shown
notes: whole, on cells

binding result [24]: binds
B22: HLA-DR (HLA-DRA*01:01/HLA-DRB1*04:02) (other, human)
MHC II alpha: not shown
MHC II beta: not shown
notes: whole, on cells

binding result [25]: binds
B23: HLA-DR (HLA-DRA*01:01/HLA-DRB1*04:01) (other, human)
MHC II alpha: not shown
MHC II beta: not shown
notes: whole, on cells
